Results reported in article PMC4810480.

Molecular target: human CD26 (residues 39 to 766) (human) (UniProt P27487)
Assay: SPR

Sequence of UniProt P27487 (P27487 39-766): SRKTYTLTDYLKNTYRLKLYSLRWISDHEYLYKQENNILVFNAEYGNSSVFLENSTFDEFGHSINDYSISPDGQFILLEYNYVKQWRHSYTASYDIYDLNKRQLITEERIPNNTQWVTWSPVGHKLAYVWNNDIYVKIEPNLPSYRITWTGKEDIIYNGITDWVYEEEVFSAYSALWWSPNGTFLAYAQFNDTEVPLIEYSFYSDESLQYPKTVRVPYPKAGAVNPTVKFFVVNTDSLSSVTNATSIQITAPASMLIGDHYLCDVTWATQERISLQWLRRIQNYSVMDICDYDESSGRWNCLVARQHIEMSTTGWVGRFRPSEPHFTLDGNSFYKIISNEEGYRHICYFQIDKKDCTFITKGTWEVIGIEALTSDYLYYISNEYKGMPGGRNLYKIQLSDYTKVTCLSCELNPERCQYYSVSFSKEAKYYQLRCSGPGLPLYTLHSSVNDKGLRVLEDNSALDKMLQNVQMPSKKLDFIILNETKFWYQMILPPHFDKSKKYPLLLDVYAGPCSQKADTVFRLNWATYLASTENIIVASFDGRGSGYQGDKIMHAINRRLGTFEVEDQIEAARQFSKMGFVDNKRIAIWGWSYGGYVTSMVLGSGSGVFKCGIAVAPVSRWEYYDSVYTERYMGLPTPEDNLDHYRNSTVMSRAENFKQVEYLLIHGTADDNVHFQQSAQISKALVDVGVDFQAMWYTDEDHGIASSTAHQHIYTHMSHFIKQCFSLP

For “MERS-CoV spike receptor-binding domain (RBD), wild type (from UniProt K9N5Q8 367-606) (domain or fragment)”, the Kd was 0.0645 µM, the koff was 0.000936 s⁻¹ and the kon was 14500 M⁻¹ s⁻¹.
